The numbers were not newly measured in publication PMC7214499, which cites them from elsewhere.

The target in this data set is IFNAR2 ECD (Homo sapiens) (UniProt P48551).
Chain of UniProt P48551 (P48551 27-243): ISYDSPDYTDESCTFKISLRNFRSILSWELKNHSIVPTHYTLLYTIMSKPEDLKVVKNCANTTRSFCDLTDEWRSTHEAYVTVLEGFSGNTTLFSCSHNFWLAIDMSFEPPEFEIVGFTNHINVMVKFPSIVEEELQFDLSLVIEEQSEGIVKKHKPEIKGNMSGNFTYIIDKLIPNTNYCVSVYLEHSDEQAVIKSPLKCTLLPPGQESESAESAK

What is called Kd is the free concentration of one partner at which half of the binding sites on the other are occupied at equilibrium, for simple one-to-one binding. In the case of IFNα2 (from UniProt P01563), the dissociation constant (Kd) is 0.01 µM.
